Experimental data taken from PMC11667672.

How the values were obtained:
[1] = biological target: Cys145 (UniProt position 3385, FLNGSCGSVGF); assay: chemical modification; details: cited from earlier work
[2] = biological target: T1, Cys145 (UniProt position 3408, FLNGSCGSVGF); assay: kinetics; details: 150 mM NaCl in constant-ionic-strength mixed buffers
[3] = biological target: T2, His41 (UniProt position 3304, VYCPRHVICTS); assay: kinetics; details: 150 mM NaCl in constant-ionic-strength mixed buffers
[4] = biological target: T1, Cys145; assay: chemical modification; details: preincubation with IAM on ice; residual activity assayed at 25 °C (Table 1 footnote says 25 °C); 150 mM NaCl in constant-ionic-strength mixed buffers; free enzyme (apo), 2 µM
[5] = biological target: T2, His41; assay: chemical modification; details: preincubation with DEPC on ice for 10-60 s; residual activity assay temperature per Table 1 footnote 25 °C; 150 mM NaCl in constant-ionic-strength mixed buffers; free enzyme (apo), 2 µM
[6] = 25 °C (Table 1 footnote), apo (free) enzyme
[7] = 25 °C, free enzyme (kcat/Ka reports on free enzyme and free substrate)
[8] = 25 °C, free enzyme binding the inhibitor

| Substance | pKa [1] | pKa [2, 6] | pKa [2, 7] | pKa [2, 8] | pKa ([2]; 25 °C, free enzyme in D2O) | pKa [3, 6] | pKa [3, 7] | pKa [3, 8] | pKa ([3]; 25 °C, free enzyme in D2O) | pKa [4] | pKa [5] |
| --- | --- | --- | --- | --- | --- | --- | --- | --- | --- | --- | --- |
| 3-chymotrypsin-like protease (3CLpro, Main protease, nsp5) (Severe acute respiratory syndrome coronavirus (SARS-CoV)) | 7.8 ± 0.1 |  |  |  |  |  |  |  |  |  |  |
| 3-chymotrypsin-like protease (3CL-PR; Main protease, Mpro, nsp5) (Severe acute respiratory syndrome coronavirus 2 (SARS-CoV-2)) |  | 8.2 ± 0.4 | 8.39 ± 0.07 | 8.5 ± 0.1 | 9.06 ± 0.06 | 6.2 ± 0.3 | 5.9 ± 0.1 | 6.5 ± 0.2 | 6.10 ± 0.07 | 7.8 ± 0.1 | 6.05 ± 0.07 |
